Test results published in patent publication US11426447B2, “Neuregulin for the treatment of tumors of the nervous system” (LEIBNIZ-INSTITUT FUR …, priority 2016, dated 2022).

Key:
[1] = system: ErbB2 and myelin protein zero (MPZ) expression; experiment: Immunoblot of nerve tissue from Nf1flox;Postn-Cre mice; type: in vivo; settings: rhNRG1 over 3 months
Description: A, Study protocol used to assess the efficacy of systemic rhNRG1 treatment on schwannoma growth in Nf1flox;Postn-Cre animals. B, Representative longitudinal nerve section from six-month-old mutant Nf1flox;Postn-Cre mice indicating a circumscribed area of neurofibroma growth. Scale bars represent 50 μm. C, Fraction of tumor tissue within total tissue was quantified as area covered by tumor in relation to the total nerve area in investigated nerve sections. Nf1flox;Postn-Cre mutant mice receiving intraperitoneal saline injections (KO vehicle ip) were compared to mutants on rhNRG1 injections (KO rhNRG1 ip; n=6 animals per genotype; mean±SEM). D, Immunoblot of pooled tissue from at least three different animals prepared from sciatic nerves, brachial nerves, trigeminal nerves and dorsal root ganglions (DRG). Nf1flox;Postn-Cre mutant animals received either vehicle control injections (KO vehicle ip) or rhNRG1 treatment (KO rhNRG1 ip) over 3 months. Immunostaining for ErbB2, Akt, phospho-Akt (pAkt), c-Jun, Erk1/2, phospho-Erk1/2 (pErk1/2), myelin protein zero (MPZ), myelin basic protein (MBP) and GAPDH as loading control (n=3).
Immunoblotting was performed as described in (Morrison et al., 2001). […] Western blot results were quantified using Gel analysis software by ImageJ. […]

[2] = Body weight and tolerability of systemically treated animals; type: in vivo, mice
Method: A, Schematic representation of the protocol used to assess the efficacy of rhNRG1 treatment on schwannoma growth after experimental sciatic nerve crush injury. B, Serum levels of rhNRG1 after single intraperitoneal injections of 10 μg rhNRG1 per kg body weight measured in pooled blood (n=4 animals; median). C, Body weight of animals receiving (genotype and treatment as indicated) was determined over 13 weeks.
Crush injury-induced schwannoma formation was provoked in 2-month-old mice. Subsequently, administration of rhNRG1 was performed both systemically (by intraperitoneal injection) and locally (by rhNRG1-containing absorbable collagen sponges (ACS)). Vehicle saline solution was given to control animals. In order to assess the bioavailability of intraperitoneally injected rhNRG1 (10 μg per kg body weight), rhNRG1 serum levels were evaluated. Strikingly, rhNRG1 levels reached a peak 2 days after injection (FIG. 1B). […] A significant decline in body weight at the chosen dosage was, however, not observed (FIG. 1C).

[3] = system: tumorlets (neoplastic Schwann cell proliferation areas); experiment: Quantification of tumorlets in Nf2flox;Postn-Cre mice; type: in vivo; settings: 20 μg rhNRG1 per kg bodyweight ip for three months, vs control animals
Description: (§1) PFA-fixed tissue blocks derived from rhNRG1 and control treated animals containing lower spinal cord, lumbar dorsal root ganglions (DRG) as well as distal nerve proportions were cut in 4 planes per animal. Photographs were subsequently scanned and analyzed using the NanoZoomer Digital Pathology Software. The total area occupied by peripheral nerve tissue and dorsal root ganglion (DRG) tissue in mm^2 was quantified separately. Likewise, neoplastic tissue regions were identified and quantified separately for peripheral nerves and DRG areas. All quantitative analyses of tumorlets in Nf2flox;Postn-Cre mice were performed in blinded manner.
The in vivo results on the efficacy of rhNRG1 on schwannoma growth was tested as described in Example 1 however in a another animal model of schwannoma disease, the well-established Nf2flox;Postn-Cre mouse line, wherein a conditional Nf2 gene deletion is facilitated by the Periostin-Cre driver line (Nf2flox;Postn-Cre).
In this model all animals spontaneously develop spinal, peripheral and cranial nerve schwannomas over time (Gehlhausen et al., 2015). 4-month-old mutant Nf2flox;Postn-Cre animals as well as their corresponding wildtype littermates were either treated with saline control injections or intraperitoneal rhNRG1 administration for three months (FIG. 8A). […]

pre-existing schwannomas = experiment: rhNRG1 treatment of pre-existing schwannomas: maximum sciatic nerve diameter; type: in vivo, Nf2flox;P0-Cre;Nefh-Cre mutant mice; settings: 3 months untreated, then 3 months systemic rhNRG1, vs vehicle
Description: A, Schematic representation of the protocol used to assess the efficacy of rhNRG1 treatment on pre-existing schwannomas. B, Quantification of maximum sciatic nerve diameters 3 and 6 months after nerve crush injury. Nf2flox;P0-Cre;Nefh-Cre mutant mice received either saline injections (vehicle) or intraperitoneal administration of rhNRH1 (** P<0.01 for differences between vehicle and rhNRG1-treated animals; n=6 animals per genotype; mean±SEM).
Three months after crush injury the right sciatic nerve of all animals was exposed surgically in order to assess sciatic nerve diameter as indicator for tumour size. Documentation was performed by video-assisted microscopy for each animal. Selected frames from the video files (using VirtualDub 1.6.19 software) were used to determine sciatic nerve diameter using ImageJ.
Two cohorts of animals underwent crush injury-induced schwannoma induction at the right sciatic nerve as described above (FIG. 5A). […] Then knockout animals (Nf2flox;P0-Cre;Nefh-Cre mutant animals) received either systemic rhNRG1 treatment or vehicle control applications for three months (FIG. 5A). […] (FIG. 5B)

neurofibromas = experiment: Quantification of tumors in Nf1flox;Postn-Cre mice; type: in vivo; settings: intraperitoneal rhNRG1 for three months, vs saline
Description: as §1
Another closely related but not similar entity of Schwann cell tumors are neurofibromas. As opposed to schwannomas, Schwann cells represent the primary neoplastic cell component of neurofibromas (Stemmer-Rachamimov et al., 2004; Rodriguez et al., 2012), but also incorporate a mixture of non-neoplastic components, including axons, perineurial cells, fibroblasts and inflammatory cells. In order to test a possible effect of rhNRG1 treatment on these tumors, which are a typical manifestation of the hereditary disease Neurofibromatosis type 1 (NF1), 4-month-old mutant Nf1flox;Postn-Cre animals as well as wildtype littermates were either treated with saline control injections or intraperitoneal rhNRG1 administration for three months (FIG. 9A). […]

B1: rhNRG1: EGF domain containing 7 kDa protein of recombinant human Neuregulin 1, purchased from Reprokine (#RKQ02297) (protein, listed as Homo sapiens)
chain: SHLVKCAEKEKTFCVNGGECFMVKDLSNPSRYLCKCPNEFTGDRCQNYVMASFYKHLGIEF
In the case of B1, the “ErbB2 expression (immunoblot)” value [1] is reported as “reduced”, the “myelin protein zero (MPZ) expression (immunoblot)” value [1] is reported as “increased” and the tolerability ([2]; 10 μg/kg, Nf2flox;P0-Cre;Nefh-Cre animals) is reported as “well tolerated”. The “significant decline in body weight” value ([2]; systemic treatment at chosen dosage (10 μg/kg ip every other day), weighed weekly over 13 weeks) was “not observed”, the “tumorlet fraction (area occupied by tumorlets relative to total nerve tissue area)” value [3] was “significant reduction” and the “tumor size (maximum sciatic nerve diameter)” value (pre-existing schwannomas) was “markedly smaller”. The “neurofibromas from distal parts of the nervous system (tumor fraction)” value (neurofibromas) was “significant effect”.
